Experimental data published in article PMC8073719, “Biochemical and Biophysical Characterization of Recombinant Human 3-Phosphoglycerate Dehydrogenase” (International Journal of Molecular Sciences, 2021).
Several values for one entry are separate records, joined by “and”; a condition that tells them apart may be missing. Identical values can stand only once.

Tests used:
hPHGDH [1] = target: T1, hPHGDH (Homo sapiens, UniProt O43175); experiment: hPHGDH reverse reaction kinetics (decrease in NADH fluorescence at 450 nm); details: for kcat: per monomer
T1 sequence (O43175 1-533): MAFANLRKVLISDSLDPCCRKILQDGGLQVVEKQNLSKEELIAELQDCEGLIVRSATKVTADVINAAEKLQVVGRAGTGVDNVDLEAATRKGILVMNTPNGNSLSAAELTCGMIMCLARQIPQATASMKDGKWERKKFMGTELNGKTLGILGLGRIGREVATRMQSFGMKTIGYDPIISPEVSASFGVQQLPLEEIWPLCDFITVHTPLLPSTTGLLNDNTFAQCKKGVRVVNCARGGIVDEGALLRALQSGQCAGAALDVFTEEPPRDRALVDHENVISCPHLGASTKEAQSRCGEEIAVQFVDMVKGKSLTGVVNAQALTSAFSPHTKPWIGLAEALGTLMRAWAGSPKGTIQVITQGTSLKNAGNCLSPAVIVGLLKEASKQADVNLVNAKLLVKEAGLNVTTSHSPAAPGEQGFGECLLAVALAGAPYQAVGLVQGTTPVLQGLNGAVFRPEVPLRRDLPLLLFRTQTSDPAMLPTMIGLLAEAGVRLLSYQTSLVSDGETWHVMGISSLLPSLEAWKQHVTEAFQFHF
Description: The latter assay was used to determine the apparent kinetic parameters on alternative substrates.

truncated hPHGDH form = target: truncated hPHGDH form; parameters: method as in PMID 29262655; details: isothermal calorimetry; cited from earlier work
hPHGDH [2] = target: T1, hPHGDH; experiment: Ligand binding by quenching of protein fluorescence at 330 nm
Description: Protein fluorescence spectra were measured at 0.06–0.1 mg/mL protein concentration in 10 mM potassium phosphate, pH 7.0, 15 °C; spectra were recorded using a Jasco FP-750 instrument and were corrected for the buffer contribution. Protein fluorescence spectra were recorded between 300 and 450 nm, with excitation at 280 and 298 nm.
All recorded spectra were subtracted for the contribution of the ligand (added to the buffer only) and were corrected for dilution at every addition. […] In all cases, Kd values were determined by fitting the data to a hyperbolic function.

hPHGDH [3] = target: T1, hPHGDH; experiment: Temperature-ramp unfolding (melting temperature) with cofactors; assay type: binding; parameters: His-tagged full-length hPHGDH was expressed in BL21(DE3) E. coli cells; made in house; host or cells: E. coli BL21(DE3)
Description: Temperature-ramp experiments were performed in 10 mM potassium phosphate, pH 7.0. For this, a software-driven, Peltier-equipped fluorimeter was used to measure the protein fluorescence change at 330 nm or a CD spectropolarimeter to follow the CD signal at 280 nm in order to reproduce a temperature gradient (0.5 °C/min) [31].

[4] = Maximal solubility of inhibitor stock; assay type: physicochemical; details: dissolved in DMSO
hPHGDH [5] = target: T1, hPHGDH; experiment: Inhibition of hPHGDH activity by inhibitors (hydrazine assay); assay type: biochemical; parameters: His-tagged full-length hPHGDH was expressed in BL21(DE3) E. coli cells; made in house; host or cells: E. coli BL21(DE3); details: kinetics on 3PG at increasing inhibitor concentration
M. tuberculosis PHGDH = details: reverse reaction; cited from earlier work
E. coli PHGDH = details: reverse reaction; cited from earlier work
hPHGDH [6] = target: T1, hPHGDH; experiment: Effect of salts, phosphate and serine synthesis metabolites on hPHGDH activity (hydrazine assay); assay type: biochemical; parameters: His-tagged full-length hPHGDH was expressed in BL21(DE3) E. coli cells; made in house; host or cells: E. coli BL21(DE3); details: up to 50 mM final concentration
Description: The effects of KCl, NaCl, MgCl2 and CaCl2 and of pH and temperature on enzyme activity and stability were investigated using the hydrazine assay. […] The dependence of activity on pH was fitted using an equation for three pKa values, according to [44], providing apparent values unrelated to microscopic ones.

[7] = substrate: NC(=O)c1ccc[n+]([C@@H]2O[C@H](COP(=O)(O)OP(=O)(O)OC[C@H]3O[C@@H](n4cnc5c(N)ncnc54)[C@H](O)[C@@H]3O)[C@@H](O)[C@H]2O)c1; experiment: purified protein, by the assay type; assay type: biochemical, human; details: 2.5 mM 3PG, pH 7.0; for Km: other: NAD+ varied, Figure S3C
Description: (§1) PSAT was added to drive the reaction and to avoid product inhibition of hPHGDH.

[8] = substrate: O=C(O)CC(O)C(=O)O; experiment: purified protein, by the assay type; assay type: biochemical, human; details: hydrazine assay, pH 7.0
Description: as §1

[9] = substrate: CC(O)CC(=O)O; experiment: purified protein, by the assay type; details: hydrazine assay, pH 7.0
[10] = substrate: C[C@@H](O)C(=O)O; experiment: purified protein, by the assay type; details: other: forward reaction, substrate varied, 1.5 mM NAD^+, hydrazine assay, 37 °C, pH 7.0, per monomer
[11] = substrate: NC(=O)C1=CN([C@@H]2O[C@H](COP(=O)(O)OP(=O)(O)OC[C@H]3O[C@@H](n4cnc5c(N)ncnc54)[C@H](O)[C@@H]3O)[C@@H](O)[C@H]2O)C=CC1; experiment: purified protein, by the assay type; details: other: reverse reaction, NADH varied, 0.5 mM PHP, 37 °C, pH 7.0
[12] = substrate: O=C(O)C(=O)COP(=O)(O)O; experiment: purified protein, by the assay type; details: pH 7.0
[13] = substrate: O=C(O)C(O)C(O)C(=O)O; experiment: purified protein, by the assay type; details: other: forward reaction, substrate varied, 1.5 mM NAD^+, hydrazine assay, 37 °C, pH 7.0
[14] = substrate: O=C(O)C(O)COP(=O)(O)O; experiment: purified protein, by the assay type; details: pH 7.0
[15] = substrate: O=C(O)CC(=O)C(=O)O; experiment: purified protein, by the assay type; details: other: reverse reaction, substrate varied, 5 mM NADH, 37 °C, pH 7.0
[16] = target: the molecule itself; experiment: SEC; Superdex 200 Increase column, potassium phosphate pH 7.0 (20 mM with 0.15 M NaCl); major peak approx. 240 kDa; monomers to tetramer
[17] = target: the molecule itself; experiment: SEC; Superdex 200 Increase column, increasing potassium phosphate pH 7.0 (100, 250, 500 mM; 0.15 M NaCl added at 100 mM); minor peak ~480 kDa confirmed by anti-His Western blot; tetramers to octamer
[18] = reverse reaction, NADH varied, 0.5 mM PHP, 37 °C, pH 7.0
[19] = other: forward reaction, substrate varied, […] NAD^+, 37 °C
[20] = other: forward reaction, substrate varied, 1.5 mM NAD^+, 37 °C
[21] = other: reverse reaction (discussion value)
[22] = other: reverse reaction, substrate varied, 150 µM NADH, 37 °C
[23] = other: reverse reaction, substrate varied, 5 mM NADH, 37 °C
[24] = other: forward reaction, substrate varied, 120 µM NAD^+, PSAT-coupled (1) and hydrazine (2) assays, 37 °C
[25] = other: forward reaction, substrate varied, 1.5 mM NAD^+, hydrazine assay, 37 °C

## NC(=O)C1=CN([C@@H]2O[C@H](COP(=O)(O)OP(=O)(O)OC[C@H]3O[C@@H](n4cnc5c(N)ncnc54)[C@H](O)[C@@H]3O)[C@@H](O)[C@H]2O)C=CC1 [NADH]
hPHGDH [1]; [18]
  Km: 560 µM
  kcat: 3.4 s⁻¹
hPHGDH [1]; reverse reaction, NADH varied, 0.5 mM PHP, Figure S4B
  maximal rate of Michaelis–Menten fit: 3.3684
Truncated hPHGDH form
  Kd: 0.2 µM
hPHGDH [2]; Kd (NAD^+; main phase of NADH binding), discussion value
  Kd: ~130 µM
hPHGDH [2]; Kd, first phase, free enzyme, 15 °C
  Kd: 0.49 ± 0.03 µM
hPHGDH [2]; Kd, second phase, free enzyme, 15 °C
  Kd: 168 µM and 169 µM
hPHGDH [2]; free enzyme
  amplitude of protein fluorescence quenching, first phase: ~35%
  amplitude of protein fluorescence quenching, second phase: 65%
hPHGDH [3]; 120 µM NAD^+ or 100 µM NADH, protein alone 47.5
  Tm, circular dichroism signal at 280 nm: 51.0 °C
hPHGDH [3]; +120 μM NAD^+ or +100 μM NADH, hPHGDH alone 47.2 ± 0.5
  Tm, CD (220 nm): 51.0 ± 0.3 °C
hPHGDH [3]; +120 μM NAD^+ or +100 μM NADH, hPHGDH alone 48.4 ± 2.1
  Tm, Fluorescence (330 nm): 55.7 °C and 55.7 ± 0.1 °C

## CBR-5884
[4]
  maximal solubility: ≤ 1000 µM
hPHGDH [5]
  mechanism of inhibition: noncompetitive inhibition mechanism

## O=C(O)C(=O)COP(=O)(O)O [PHP, 3-phosphohydroxypyruvate]
hPHGDH [1]; Ki (substrate inhibition), reverse reaction, 150 µM NADH, 37 °C, pH 7.0
  Ki: 2230 µM
hPHGDH [1]; Ki (substrate inhibition), reverse reaction, 5 mM NADH, 37 °C, pH 7.0
  Ki: 1260 µM
hPHGDH [1]; Ki of fit with substrate inhibition, reverse reaction, 150 µM NADH, Figure S4A
  Ki: 2230 µM
hPHGDH [1]; Ki of fit with substrate inhibition, reverse reaction, 5 mM NADH, Figure S4A,C,D
  Ki: 1260 µM
hPHGDH [1]; higher than for the forward reaction on 3PG
  kinetic efficiency kcat/Km ratio, reverse reaction vs forward reaction on 3PG: 20 fold
hPHGDH [1]; reverse reaction, 150 µM NADH, Figure S4A
  maximal rate of fit with substrate inhibition: 1.2871
hPHGDH [1]; reverse reaction, 5 mM NADH, Figure S4A,C,D
  maximal rate of fit with substrate inhibition: 2.282
hPHGDH [1]; reverse reaction, substrate varied, 150 µM NADH, 37 °C, pH 7.0
  kcat: 1.3 s⁻¹
M. tuberculosis PHGDH
  Km: 85 µM
E. coli PHGDH
  Km: 40 µM
hPHGDH [6]
  effect on hPHGDH activity on […] 3PG: not affected

B1: recombinant human D-3-phosphoglycerate dehydrogenase, His-tagged, full length (enzyme, UniProt O43175 1-533, looked up)
chain: MAFANLRKVLISDSLDPCCRKILQDGGLQVVEKQNLSKEELIAELQDCEGLIVRSATKVTADVINAAEKLQVVGRAGTGVDNVDLEAATRKGILVMNTPNGNSLSAAELTCGMIMCLARQIPQATASMKDGKWERKKFMGTELNGKTLGILGLGRIGREVATRMQSFGMKTIGYDPIISPEVSASFGVQQLPLEEIWPLCDFITVHTPLLPSTTGLLNDNTFAQCKKGVRVVNCARGGIVDEGALLRALQSGQCAGAALDVFTEEPPRDRALVDHENVISCPHLGASTKEAQSRCGEEIAVQFVDMVKGKSLTGVVNAQALTSAFSPHTKPWIGLAEALGTLMRAWAGSPKGTIQVITQGTSLKNAGNCLSPAVIVGLLKEASKQADVNLVNAKLLVKEAGLNVTTSHSPAAPGEQGFGECLLAVALAGAPYQAVGLVQGTTPVLQGLNGAVFRPEVPLRRDLPLLLFRTQTSDPAMLPTMIGLLAEAGVRLLSYQTSLVSDGETWHVMGISSLLPSLEAWKQHVTEAFQFHF
notes: D-3-phosphoglycerate dehydrogenase, human, 533 amino acids; synthetic gene back-translated from GenBank CAG33076.1, codon-optimised for E. coli, cloned in pETM11 (NcoI/XhoI); The N-terminal 6xHis tag of pETM11 can be cut by TEV protease, but no cleavage is reported; the tagged monomer has a theoretical mass of 59.776 kDa and was detected with an anti-His antibody in the SEC peaks; Tetramer in …
[7]; PSAT-coupled assay
  Km: 133 µM
[7]; hydrazine assay
  Km: 162 µM
[7]; other: forward reaction, NAD^+ varied, assays 1,2, 37 °C
  kcat/Km: 15100 M⁻¹ s⁻¹
[8]; [19]
  Km: 4480 ± 870 µM
  kcat: 0.44 ± 0.01 s⁻¹
  kcat/Km: 98 M⁻¹ s⁻¹
[8]; other: substrate varied, […] NAD+, Figure S3B,D-F
  Km: 4480 µM
[9]; [20]
  Km: 41000 ± 19000 µM
  kcat: 2.53 s⁻¹
  kcat/Km: 61 M⁻¹ s⁻¹
[9]; other: substrate varied, 1.5 mM NAD+, Figure S3B,D-F, 37.0 °C
  Km: 41800 µM
[10]
  kcat: 5.41 s⁻¹
  kcat/Km: 36 M⁻¹ s⁻¹
[11]
  Km: 559 ± 75 µM
  kcat: 3.37 s⁻¹
  kcat/Km: 6000 M⁻¹ s⁻¹
[12]; [21]
  Km: 10 µM
  kcat: 2.28 ± 0.14 s⁻¹
  kcat/Km: 228000 M⁻¹ s⁻¹
[12]; other: reverse reaction, 150 µM NADH, Figure S4A
  Km: 14.1 µM
[12]; other: reverse reaction, 5 mM NADH, Figure S4A,C,D
  Km: 10.2 µM
[12]; [22]
  Km: 0.014 ± 0.003 [Ki = 2.23 ± 0.37] mM
  kcat: 1.29 ± 0.09 s⁻¹
  kcat/Km: 91100 M⁻¹ s⁻¹
[12]; [23]
  Km: 0.010 ± 0.003 [Ki = 1.26 ± 0.25] mM
  kcat: 2.28 ± 0.14 s⁻¹
  kcat/Km: 228000 M⁻¹ s⁻¹
[13]
  Km: 5550 ± 2730 µM
  kcat: 0.41 s⁻¹
  kcat/Km: 74 M⁻¹ s⁻¹
[14]; other: 3PG varied, 120 µM NAD+, PSAT-coupled assay, Figure S3A, 37.0 °C
  Km: 252 µM
[14]; other: 3PG varied, 120 µM NAD+, hydrazine assay, Figure S3A, 37.0 °C
  Km: 317 µM
[14]; [24]
  Km: 255 ± 59 µM
  kcat: 1.48 s⁻¹
  kcat/Km: 5800 M⁻¹ s⁻¹
[14]; [25]
  Km: 360 ± 61 µM
  kcat: 2.97 s⁻¹
  kcat/Km: 8250 M⁻¹ s⁻¹
[14]; other: substrate varied, 1.5 mM NAD+, hydrazine assay, Figure S3B,D-F, 37.0 °C
  Km: 359 µM
[15]
  Km: 0.90 ± 0.42 [Ki = 152 ± 56] mM
  kcat: 1.76 ± 0.20 s⁻¹
  kcat/Km: 1960 M⁻¹ s⁻¹
[16]
  stoichiometry N: 4
[17]
  stoichiometry N: 8
